Reference: US10246721B2, “Sugar transporters” (CARNEGIE INSTITUTION OF WASHINGTON, priority 2009, dated 2019)

Key:
HEK293T cells = test: Glucose transport by GLUE/SWEET coexpressed with FRET glucose sensor (cytosolic or ER) in HEK293T cells; format: cell-based, human; settings: for glucose accumulation in cytosol (negative FRET ratio change): cytosolic FRET glucose sensor
Experimental: Individual cells were analyzed by quantitative ratio imaging of CFP and Venus emission (acquisition intervals 5 sec; Fc/D corresponds to the normalized emission intensity ratio). HEK293T/FLIPglu600μΔ13V cells were perfused with medium, followed by square pulses of increasing glucose concentrations. […] Cells coexpressing the sensor and SWEET1 accumulated glucose as evidenced by the negative FRET ratio change with an amplitude that correlates with the increasing external glucose supply (blue line). Data points are mean±SD (n>10).
The sensor FLIPglu600μΔ13V^ER was targeted to the lumen of the ER (analysis performed as under FIG. 9A, acquisition intervals 10 sec). […] Cells coexpressing the sensor and SWEET1 accumulated glucose in the ER as evidenced by the negative ratio change induced by perfusion with glucose. Data points are mean±SD (n>10).
By utilizing the above described HEK293T cell system, a novel class of Arabidopsis sugar transporters was identified that are involved in nectar production in plants and with all hallmarks of the glucose transport activity described in root tips. A screening assay was then initiated in which candidate transporter genes from Arabidopsis were coexpressed with the FRET glucose sensor in the HEK293T cell expression system.
FRET analysis. Cell culture, transfection, image acquisition and FRET analysis were performed as described previously.
To identify novel glucose transporters from the reference plant Arabidopsis, genes encoding uncharacterized polytopic membrane proteins from the plant membrane protein database Aramemnon, available on the internet at “aramemnon.botanik.uni-koeln.de”,—were screened using a mammalian expression system. Candidate genes were coexpressed with a high-sensitivity FRET glucose sensor (i.e. FLIPglu600μΔ13V) in human embryonic kidney HEK293T cells, which are characterized by low endogenous glucose uptake activity. […] To determine whether SWEET1 can also mediate efflux from the cytosol, we expressed the FRET glucose sensor FLIPglu600μΔ13V^ER in the lumen of the endoplasmic reticulum (ER; FIG. 9B). Topologically, uptake across the plasma membrane (PM) is initiated from the extracellular side of the carrier, while ‘export’ to the ER is initiated from the cytoplasmic side of the transporter (FIG. 9C). […] SWEET1 may thus function as a glucose uniporter, for which the direction of transport depends only on the glucose gradient across the membrane. […] Furthermore, the mRNAs levels of known human glucose transporters in the GLUT and SGLT families were not induced in HEK293T cells expressing SWEET1 (FIG. 12B). […] In support of a role in cellular uptake and efflux, a constitutively expressed SWEET1-YFP fusion localizes to the PM in Arabidopsis leaves (FIG. 9G). […] Other proteins, possibly related to SWEET1, may be involved in sugar transport in roots.

yeast strain YSL2-1 = test: Complementation growth assay of yeast strain YSL2-1/EBY4000 lacking all 18 hexose transporter genes; format: cell-based; settings: for complementation of yeast hexose transport mutant on glucose: 2% glucose; for complementation on mannose: 2% mannose; for sensitivity to 2-deoxyglucose: various 2-Deoxy-glucose levels; for complementation on fructose: 2% fructose
Experimental: Cells expressing yeast homolog, HXTS, or mammalian homolog, GLUT1, were used as controls. Os8N3 and RAG1AP1 were homologs from rice and mammalian. The yeast cells were grown in SD-Ura liquid medium with 2% maltose to early log phase and 5 m of serious dilutions were spotted on the media containing YPM or SD-URA containing 2% of maltose, fructose, or mannose. […]
(§1) Cells expressing yeast homolog, HXT5, or mammalian homolog, GLUT1, were used as controls. Os8N3 and RAG1AP1 were homologs from rice and mammalian. The yeast cells were grown in SD-Ura liquid medium with 2% maltose to early log phase and 5 m of serious dilutions were spotted on the media containing YPM or SD-URA containing 2% glucose.
as §1, with “various 2-Deoxy-glucose levels.” for “2% glucose.”
A modified version of the yeast strain EBY4000 (hxt1 through −17Δ::loxP gal2Δ::loxP stl1Δ::loxP agt1Δ::loxP ydl247wΔ::loxP yjr160cΔ::loxP) carrying a cytosolic invertase (YSL2-1) was transformed with SWEETs and HXTS and grown on SD (synthetic deficient) medium supplemented with 2% maltose and required auxotrophic markers. For complementation growth assays, cells were grown overnight in liquid minimum medium to OD600˜0.6 and then diluted to OD600˜0.2 using water. Serial dilutions (1×, 5×, 25×, and 125×) were plated on SD media containing either 2% maltose (as control) or 2% glucose and the relevant auxotrophic markers. Growth was documented by scanning (CanoScan, Canon) the plates after 2-5 days at 30° C.

Molecule | glucose accumulation in cytosol (negative FRET ratio change) (HEK293T cells) | complementation of yeast hexose transport mutant on glucose (yeast strain YSL2-1) | complementation on mannose (yeast strain YSL2-1) | sensitivity to 2-deoxyglucose (yeast strain YSL2-1) | further results
GLUE12: Arabidopsis GLUE/SWEET sugar transporter protein | function as glucose transporters with different activities |  |  |  | 
GLUE5: Arabidopsis GLUE/SWEET sugar transporter protein (protein, UniProt Q9FM10 1-240, looked up) Bidirectional sugar …: MTDPHTARTIVGIVGNVISFGLFCAPIPTMVKIWKMKSVSEFKPDPYVATVLNCMMWTFYGLPFVQPDSLLVITINGTGLFMELVYVTIFFVFATSPVRRKITIAMVIEVIFMAVVIFCTMYFLHTTKQRSMLIGILCIVFNVIMYAAPLTVMKLVIKTKSVKYMPFFLSLANFMNGVVWVIYACLKFDPYILIPNGLGSLSGIIQLIIYITYYKTTNWNDDDEDKEKRYSNAGIELGQA |  | transport glucose | transport mannose | transport 2-deoxyglucose | 
GLUE13: Arabidopsis GLUE/SWEET sugar transporter protein (protein, UniProt Q9FGQ2 1-294, looked up) Bidirectional sugar …: MALTNNLWAFVFGILGNIISFVVFLAPVPTFVRICKKKSTEGFQSLPYVSALFSAMLWIYYAMQKDGTAFLLITINAFGCVIETIYIVLFVSYANKKTRISTLKVLGLLNFLGFAAIVLVCELLTKGSTREKVLGGICVGFSVSVFAAPLSIMRVVVRTRSVEFMPFSLSLFLTISAVTWLFYGLAIKDFYVALPNVLGAFLGAVQMILYIIFKYYKTPVAQKTDKSKDVSDHSIDIAKLTTVIPGAVLDSAVHQPPALHNVPETKIQLTEVKSQNMTDPKDQINKDVQKQSQV | function as glucose transporters with different activities |  |  |  | 
GLUE16: Arabidopsis GLUE/SWEET sugar transporter protein (protein, UniProt Q9LUR4 1-230, looked up) Bidirectional sugar …: MADLSFYVGVIGNVISVLVFLSPVETFWRIVQRRSTEEYECFPYICTLMSSSLWTYYGIVTPGEYLVSTVNGFGALAESIYVLIFLFFVPKSRFLKTVVVVLALNVCFPVIAIAGTRTLFGDANSRSSSMGFICATLNIIMYGSPLSAIKTVVTTRSVQFMPFWLSFFLFLNGAIWGVYALLLHDMFLLVPNGMGFFLGIMQLLIYAYYRNAEPIVEDEEGLIPNQPLLA |  |  |  | transport 2-deoxyglucose | 
GLUE7: Arabidopsis GLUE/SWEET sugar transporter protein (protein, UniProt Q8LBF7 1-258, looked up) Bidirectional sugar …: MVFAHLNLLRKIVGIIGNFIALCLFLSPTPTFVRIVKKKSVEEYSPIPYLATLINCLVWVLYGLPTVHPDSTLVITINGTGILIEIVFLTIFFVYCGRQKQRLIISAVIAAETAFIAILAVLVLTLQHTTEKRTMSVGIVCCVFNVMMYASPLSVMKMVIKTKSVEFMPFWLSVAGFLNAGVWTIYALMPFDPFMAIPNGIGCLFGLAQLILYGAYYKSTKRIMAERENQPGYVGLSSAIARTGSEKTANTNQEPNNV |  | transport glucose | transport fructose and mannose | transport 2-deoxyglucose | complementation on fructose (yeast strain YSL2-1): transport fructose
GLUE4: Arabidopsis GLUE/SWEET sugar transporter protein (protein, UniProt Q944M5 1-251, looked up) Bidirectional sugar …: MVNATVARNIAGICGNVISLFLFLSPIPTFITIYKKKKVEEYKADPYLATVLNCALWVFYGLPMVQPDSLLVITINGTGLAIELVYLAIFFFFSPTSRKVKVGLWLIGEMVFVGIVATCTLLLFHTHNQRSSFVGIFCVIFVSLMYIAPLTIMSKVIKTKSVKYMPFSLSLANFLNGVVWVIYALIKFDLFILIGNGLGTVSGAVQLILYACYYKTTPKDDEDEEDEENLSKVNSQLQLSGNSGQAKRVSA |  | transport glucose | transport fructose and mannose | transport 2-deoxyglucose | complementation on fructose (yeast strain YSL2-1): transport fructose
GLUE3: Arabidopsis GLUE/SWEET sugar transporter protein (protein, UniProt Q6NQN5 1-263, looked up) Bidirectional sugar …: MGDKLRLSIGILGNGASLLLYTAPIVTFSRVFKKKSTEEFSCFPYVMTLFNCLIYTWYGLPIVSHLWENLPLVTINGVGILLESIFIFIYFYYASPKEKIKVGVTFVPVIVGFGLTTAISALVFDDHRHRKSFVGSVGLVASISMYGSPLVVMKKVIETRSVEYMPFYLSFFSFLASSLWLAYGLLSHDLFLASPNMVATPLGILQLILYFKYKNKKDLAPTTMVITKRNDHDDKNKATLEFVVDVDRNSDTNEKNSNNASSI |  |  |  | transport 2-deoxyglucose | 
GLUE8: Arabidopsis sugar transporter protein expressed in the tapetum, paralog of SWEET1 (protein, UniProt Q8LFH5 1-239, looked up) Bidirectional sugar …: MVDAKQVRFIIGVIGNVISFGLFAAPAKTFWRIFKKKSVEEFSYVPYVATVMNCMLWVFYGLPVVHKDSILVSTINGVGLVIELFYVGVYLMYCGHKKNHRRNILGFLALEVILVVAIILITLFALKGDFVKQTFVGVICDVFNIAMYGAPSLAIIKVVKTKSVEYMPFLLSLVCFVNAGIWTTYSLIFKIDYYVLASNGIGTFLALSQLIVYFMYYKSTPKEKTVKPSEVEISATERV | function as glucose transporters with different activities | transport glucose | transport mannose | transport 2-deoxyglucose | glucose efflux from cytosol into the ER (HEK293T cells; ER-targeted sensor FLIPglu600μΔ13V ER): ‘efflux’ glucose from the cytosol into the ER; glucose accumulation in cytosol (negative FRET ratio change) (HEK293T cells; listed as SWEET8): also functions as a uniporter; complementation of yeast hexose transport mutant on glucose (yeast strain YSL2-1; listed as SWEET8/RPG1): complements the yeast glucose transport mutant
GLUE14: Arabidopsis GLUE/SWEET sugar transporter protein (protein, UniProt Q9SW25 1-281, looked up) Bidirectional sugar …: MVLTHNVLAVTFGVLGNIISFIVFLAPVPTFVRICKKKSIEGFESLPYVSALFSAMLWIYYALQKDGAGFLLITINAVGCFIETIYIILFITYANKKARISTLKVLGLLNFLGFAAIILVCELLTKGSNREKVLGGICVGFSVCVFAAPLSIMRVVIRTKSVEFMPFSLSLFLTISAITWLFYGLAIKDFYVALPNILGAFLGAVQMILYVIFKYYKTPLVVDETEKPKTVSDHSINMVKLSSTPASGDLTVQPQTNPDVSHPIKTHGGDLEDQMDKKMPN |  |  |  | transport 2-deoxyglucose | 
GLUE17: Arabidopsis GLUE/SWEET sugar transporter protein (protein, UniProt Q84WN3 1-241, looked up) Bidirectional sugar …: MAEASFYIGVIGNVISVLVFLSPVETFWKIVKRRSTEEYKSLPYICTLLGSSLWTYYGIVTPGEYLVSTVNGFGALVETIYVSLFLFYAPRHLKLKTVDVDAMLNVFFPIAAIVATRSAFEDEKMRSQSIGFISAGLNIIMYGSPLSAMKTVVTTKSVKYMPFWLSFFLFLNGAIWAVYALLQHDVFLLVPNGVGFVFGTMQLILYGIYRNAKPVGLSNGLSEIAQDEEEGLTSRVEPLLS |  |  |  | transport 2-deoxyglucose | 
